Experimental findings from US20090191211A1 (ONCOTHERAPY SCIENCE, published 2009) are described below.

The target of this test is T1, EphA4 (Eph receptor A4) (human, UniProt P54764 20-986).
T1 construct: Endogenous EphA4 on the human pancreatic cancer cell line MIAPaca-2 (over-expressing); also called EpbA4
Kind of test: flow cytometry on EphA4 over-expressing MIAPaca-2 cells. As to the method: Cancer cells (5×10⁶) were incubated at 4° C. for 30 minutes with the purified polyclonal antibody (pAb), monoclonal antibodies (mAb), rabbit IgG (the control for pAb) or mouse IgG (the control for mAb). Cells were washed with phosphate buffer solution (PBS) and then incubated at 4° C. for 30 minutes in FITC-labeled Alexa Fluor 488. The cells were again washed in PBS, and analyzed on a flow cytometer (FACSCalibur®, Becton Dickinson) and then analyzed by BD CellQuest™ Pro software (Becton Dickinson). Mean fluorescence intensity (MFI) was defined as a ratio of the flow cytometric intensity (intensity by each protein specific antibody/intensity by rabbit IgG).
Using EphA4 over-expressing cells, the binding ratios of anti-EphA4 antibodies on the cell surface were investigated.
For orientation: In flow cytometry, cells or beads pass a laser one at a time.

T1 sequence (P54764 20-986): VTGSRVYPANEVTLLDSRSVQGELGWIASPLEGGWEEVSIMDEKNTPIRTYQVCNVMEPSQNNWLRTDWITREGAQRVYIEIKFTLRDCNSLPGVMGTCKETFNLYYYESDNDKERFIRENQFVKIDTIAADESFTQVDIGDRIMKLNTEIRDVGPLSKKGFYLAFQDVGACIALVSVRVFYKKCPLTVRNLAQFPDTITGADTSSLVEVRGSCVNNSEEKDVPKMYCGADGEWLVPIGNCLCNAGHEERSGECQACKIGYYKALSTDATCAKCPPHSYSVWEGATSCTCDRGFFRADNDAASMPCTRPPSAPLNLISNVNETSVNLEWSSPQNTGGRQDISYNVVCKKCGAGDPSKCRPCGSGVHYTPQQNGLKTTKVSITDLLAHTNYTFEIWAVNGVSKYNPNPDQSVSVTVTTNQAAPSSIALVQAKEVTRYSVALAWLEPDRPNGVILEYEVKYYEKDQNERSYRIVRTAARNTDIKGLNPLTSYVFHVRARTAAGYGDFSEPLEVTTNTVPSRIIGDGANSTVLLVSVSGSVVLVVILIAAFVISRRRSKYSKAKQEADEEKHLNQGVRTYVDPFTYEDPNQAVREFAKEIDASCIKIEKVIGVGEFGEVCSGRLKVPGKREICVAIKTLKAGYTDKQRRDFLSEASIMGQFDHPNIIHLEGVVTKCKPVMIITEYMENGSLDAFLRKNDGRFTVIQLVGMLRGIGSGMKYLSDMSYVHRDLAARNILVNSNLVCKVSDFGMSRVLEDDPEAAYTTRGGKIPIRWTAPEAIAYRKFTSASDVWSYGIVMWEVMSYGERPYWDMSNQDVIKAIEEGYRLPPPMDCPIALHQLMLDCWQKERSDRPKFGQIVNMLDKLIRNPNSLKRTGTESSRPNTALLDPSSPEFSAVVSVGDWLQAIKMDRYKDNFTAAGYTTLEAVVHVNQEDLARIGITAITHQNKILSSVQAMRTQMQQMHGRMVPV

B1: anti-EphA4 human antibody 65 (antibody, V domains shown)
VH: QVQLVQSGAEVKKPGASVKVSCKVSGYTLTELSMHWVRQAPGKGLEWMGGFDPEDGETIYAQKFQGRVTMTEDTSTDTAYMELSSLRSEDTAVYYCATAQPFHWGDDAFDIWGQGTMVTVSS
VL: not shown
notes: also called clone 65
As to B1, the MFI is 12.6 ratio (intensity by specific antibody / intensity by control IgG).

B2: anti-EphA4 human antibody 336 (antibody, V domains shown)
VH: QVQLQQSGPGLVKPSQTLSLTCAISGDSVSSNSAAWNWIRQSPSRGLEWLGRTYYRSKWYNDYAVSVKSRITINPDTSKNQFSLQLNSVTPEDTAVYYCARDSLRSFDYWGQGTLVTVSS
VL: QSVLTQPPSVSAAPGQKVTISCSGSSSNIGNNYVSWYQQLPGTAPKLLIYDNNKRPSGIPDRFSGSKSGTSATLGITGLQTGDEADYYCGTWDSSLSAVVFGGGTKLTVLG
For B2, the MFI was 15.5 ratio (intensity by specific antibody / intensity by control IgG).
